Values of other authors as cited in article PMC7417478.

Columns and labels:
FGFR1 (Homo sapiens) = FGFR1 (Homo sapiens) (UniProt P11362)
FGFR2 (Homo sapiens) = FGFR2 (Homo sapiens) (UniProt P21802)
Sequence of UniProt P21802 (P21802 22-377): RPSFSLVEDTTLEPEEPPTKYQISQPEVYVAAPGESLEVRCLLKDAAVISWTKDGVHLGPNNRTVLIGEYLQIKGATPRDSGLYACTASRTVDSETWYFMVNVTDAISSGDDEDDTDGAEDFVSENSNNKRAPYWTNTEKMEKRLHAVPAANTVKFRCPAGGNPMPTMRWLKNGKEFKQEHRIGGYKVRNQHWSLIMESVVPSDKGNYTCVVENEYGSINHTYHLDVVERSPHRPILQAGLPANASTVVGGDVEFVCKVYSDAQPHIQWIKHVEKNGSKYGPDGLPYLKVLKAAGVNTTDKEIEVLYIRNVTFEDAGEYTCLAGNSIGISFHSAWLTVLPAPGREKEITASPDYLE

Sequence of UniProt P11362 (P11362 22-376): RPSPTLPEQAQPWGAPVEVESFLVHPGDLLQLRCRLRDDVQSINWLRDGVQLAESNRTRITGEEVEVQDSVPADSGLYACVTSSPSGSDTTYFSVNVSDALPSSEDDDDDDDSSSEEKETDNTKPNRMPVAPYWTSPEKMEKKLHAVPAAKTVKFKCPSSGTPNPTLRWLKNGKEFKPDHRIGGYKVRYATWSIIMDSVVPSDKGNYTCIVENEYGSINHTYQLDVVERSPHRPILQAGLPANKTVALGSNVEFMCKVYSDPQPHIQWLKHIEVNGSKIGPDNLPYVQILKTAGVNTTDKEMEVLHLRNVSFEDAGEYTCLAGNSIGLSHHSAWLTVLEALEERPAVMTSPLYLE

- Kd (FGFR1 (Homo sapiens)): 1 nM
- Kd (FGFR2 (Homo sapiens)): 1 nM
Substance: FGF5 (from UniProt P12034)
